The text below walks through data of patent publication US20260053904A1 (BIOATLA, published 2026).

In assay [1] the target is T1, human EpCAM expressed on cells (CHO, Colo205, 293) (human, UniProt P16422 24-314).
T1 sequence (looked up): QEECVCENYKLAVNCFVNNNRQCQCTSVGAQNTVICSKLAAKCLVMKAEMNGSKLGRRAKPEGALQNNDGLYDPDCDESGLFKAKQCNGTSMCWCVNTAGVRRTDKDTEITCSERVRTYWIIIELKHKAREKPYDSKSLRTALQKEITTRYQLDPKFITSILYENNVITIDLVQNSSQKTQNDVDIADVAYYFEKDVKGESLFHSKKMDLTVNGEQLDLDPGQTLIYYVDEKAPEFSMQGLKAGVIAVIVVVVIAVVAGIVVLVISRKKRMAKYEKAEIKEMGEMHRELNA
Nature of the assay: cell-based or functional assay.

Assay [2] concerns the target T2, recombinant human EpCAM extracellular domain (human, UniProt P16422 24-265).
T2 construct: extracellular domain; Plate-coated antigen of the ELISAs; also called human EpCAM ECD; recombinant EpCAM antigen
T2 sequence (looked up): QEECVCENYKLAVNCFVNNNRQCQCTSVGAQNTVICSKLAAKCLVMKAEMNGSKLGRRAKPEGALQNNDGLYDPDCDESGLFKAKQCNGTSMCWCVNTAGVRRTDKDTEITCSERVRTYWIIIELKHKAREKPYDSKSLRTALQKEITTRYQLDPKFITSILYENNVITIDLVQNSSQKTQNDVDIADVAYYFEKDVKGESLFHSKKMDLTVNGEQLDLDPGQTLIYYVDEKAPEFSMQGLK
Put plainly: ELISA with pH titration, human EpCAM. As for the experimental part: The binding activities of the humanized conditionally active anti-EpCAM antibodies to human EpCAM with pH titration were also measured by ELISA.
(§1) The ELISA assay was performed using the following protocol: [0388] 1) Coat ELISA plates with 100 μL of 0.5 μg/mL (06_20_17 and 06_28_17 Experiments) or 1 μg/mL (07_06_17 and 07_11_17 Experiments) recombinant EpCAM antigen in carbonate-bicarbonate coating buffer [0389] 2) Cover plates with sealing film and incubate overnight at 4° C. [0390] 3) Decant plates and tap out residual liquid on a stack of paper towels [0391] […] 5) Add 200 μL of various pH incubation buffers to the wells according to the sample map.
In general terms: In an ELISA, binding on a coated surface is turned into a signal by an enzyme label.

Assay [3] deals with T3, cyno EpCAM (recombinant, ELISA antigen) (cynomolgus monkey).
T3 construct: extracellular domain; also called cynomolgus EpCAM extracellular domain
T3 sequence (Q1WER1 24-265): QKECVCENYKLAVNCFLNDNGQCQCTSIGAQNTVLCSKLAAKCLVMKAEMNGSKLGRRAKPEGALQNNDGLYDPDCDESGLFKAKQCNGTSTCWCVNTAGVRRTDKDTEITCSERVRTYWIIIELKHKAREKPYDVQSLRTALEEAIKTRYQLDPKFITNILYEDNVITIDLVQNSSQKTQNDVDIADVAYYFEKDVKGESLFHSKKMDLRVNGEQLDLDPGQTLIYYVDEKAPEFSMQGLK
Nature of the assay: ELISA, cyno EpCAM, pH 6.0. Here is the method:
(§2) The binding activities of the humanized conditionally active anti-EpCAM antibodies to cyno EpCAM were similarly measured. The EC50 for binding to the cyno EpCAM at pH 6.0 and pH 7.4 for the humanized conditionally active anti-EpCAM antibodies are summarized in Table 7.
as §1

Assay [4] has as its target T4, cyno EpCAM expressed on 293 cells (cynomolgus monkey).
T4 construct: whole, on cells; also called 293 cells expressing cyno EpCAM
Nature of the assay: FACS on 293 cells expressing cyno EpCAM, pH 6.0. Here is the method:
(§3) A similar FACS analysis was also carried out using 293 cells expressing cyno EpCAM. […] The EC50 values for binding to the 293 cells expressing cyno EpCAM by the humanized conditionally active anti-EpCAM antibodies are summarized in Table 11.

Assay [5] addresses T4, cyno EpCAM expressed on 293 cells. Nature of the assay: FACS on 293 cells expressing cyno EpCAM, pH 7.4. As for the experimental part: as §3
Assay [6] has as its target T3, cyno EpCAM (recombinant, ELISA antigen). Put plainly: ELISA with pH titration, cyno EpCAM. As for the experimental part:
The binding activities of the humanized conditionally active anti-EpCAM antibodies to cyno EpCAM with pH titration was similarly measured by ELISA.
as §1

The target is the same in assay [7]. Nature of the assay: ELISA, cyno EpCAM, pH 7.4. Here is the method: as §2, §1
In assay [8] the target is T1, human EpCAM expressed on cells (CHO, …). Put plainly: FACS on 293 cells expressing human EpCAM, pH 7.4. As for the experimental part:
(§4) A similar FACS analysis was also carried out using 293 cells expressing human EpCAM. […] The EC50 values for binding to the 293 cells expressing human EpCAM by the humanized conditionally active anti-EpCAM antibodies are summarized in Table 10.

The target is the same in assay [9]. Put plainly: FACS on Colo205 cells expressing human EpCAM, pH 6.0. As for the experimental part: (§5) Binding activities of the humanized conditionally active anti-EpCAM antibodies to Colo205 cells expressing human EpCAM were measured by FACS at pH 6.0 and pH 7.4. […] The EC50 values for binding to the Colo205 cells expressing human EpCAM by the humanized conditionally active anti-EpCAM antibodies are summarized in Table 9.

Assay [10] addresses T2, recombinant human EpCAM extracellular …. Put plainly: ELISA, human EpCAM, pH 7.4. As for the experimental part:
(§6) The binding activities of the humanized conditionally active anti-EpCAM antibodies to human EpCAM were measured by ELISA, using the template antibody BAP-1-5-01-06, as a control. The EC50 values of the humanized conditionally active anti-EpCAM antibodies for binding to human EpCAM at pH 6.0 and pH 7.4 are summarized in Table 5.
as §1

For assay [11] the target is unchanged. Nature of the assay: ELISA, human EpCAM, pH 6.0. Here is the method:
as §6, §1

For assay [12], the target named is T1, human EpCAM expressed on cells (CHO, …). Nature of the assay: FACS on Colo205 cells expressing human EpCAM, pH 7.4. As for the experimental part: as §5
The target is the same in assay [13]. Nature of the assay: FACS on 293 cells expressing human EpCAM, pH 6.0. Here is the method: as §4
In assay [14] the target is T2, recombinant human EpCAM extracellular …. Put plainly: ELISA on human EpCAM, pH range 5.0 to 7.4.

T4 sequence (Q1WER1 24-314): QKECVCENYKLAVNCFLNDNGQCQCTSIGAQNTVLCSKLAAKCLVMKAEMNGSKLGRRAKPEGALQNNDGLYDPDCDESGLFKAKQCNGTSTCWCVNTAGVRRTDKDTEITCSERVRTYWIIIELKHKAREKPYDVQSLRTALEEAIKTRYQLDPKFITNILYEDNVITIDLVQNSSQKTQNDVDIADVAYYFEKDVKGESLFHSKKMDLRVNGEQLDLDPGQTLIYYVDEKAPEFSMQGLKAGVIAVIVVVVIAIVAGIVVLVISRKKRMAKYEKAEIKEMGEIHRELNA

B1: BAP-105-06-01 conjugated to MMAE (antibody, V domains shown)
VH: EVQLVQSGAEVKKPGATVKISCKVSGYTFTSYWMHWIRQPPGKGLEWIGYIRPSTGYTEYNQKFKDRFTISRDNSKNTLYLQMNSLRAEDTAVYYCGRGDNWVGFANWGQGTLVTVSS
VL: EIVLTQSPDFQSVTPKEKVTITCSASSSISYMHWYQQKPGKAPKLLIYSTSKLASGVPDRFSGSGSGTDFTLKISRVEAEDVGVYYCHQWSTYETFGQGTKVEIK
modifications: antibody conjugated to MMAE; chain and residues of attachment not stated
In the case of B1, in assay [1], the “IC50 for the in vitro killing of Colo205 cells, pH6.0” value was determined as 101 ng/mL; the “IC50 for the in vitro killing of Colo205 cells, pH7.4” value was 550 ng/mL; the “ratio (pH7.4/pH6.0) of the IC50 for the in vitro killing of Colo205 cells” value is 5.47.

B2: BAP-105.4-01-02 (antibody, V domains shown)
VH: EVQLVQSGAEVKKPGESLRISCKGSGYTFTSYWMHWIRQSPSRGLEWLGYIRPSTGYTEYNQKFKDRVTISADKSISTAYLQWSSLKASDTAMYYCGRGDNWVGFANWGQGTLVTVSS
VL: EIVLTQSPDFQSVTPKEKVTITCSASSSISYMHWYQQKPGKAPKLLIYSTSNLASGVPDRFSGSGSGTDFTLKISRVEAEDVGVYYCHQWSTYETFGQGTKVEIK
notes: Humanized
As to B2, the pH inflection point in assay [2] was determined as 6.87 pH; in assay [6] it was 6.27 pH. In addition, the EC50 (usually the midpoint of the concentration-response curve) in [3] was 0.194 µg/mL; in assay [4], 1.26 µg/mL; in [5], 6.36 µg/mL; in [7] it was 0.208 µg/mL; in assay [8], 0.174 µg/mL; in assay [9] it was 0.273 µg/mL. For the same molecule, the EC50 came out at 0.066 µg/mL in assay [10], 0.0147 µg/mL in assay [11], 0.397 µg/mL in [12] and 0.116 µg/mL in assay [13].

B3: BAP-105.4-02-01 (antibody, V domains shown)
VH: EVQLVQSGAEVKKPGATVKISCKVSGYTFTSYWMHWVRQAPGQGLEWMGYIRPSTGYTEYNQKFKDRFTISRDNSKNTLYLQMNSLRAEDTAVYYCGRGDNWVGFANWGQGTLVTVSS
VL: EIVMTQSPATLSVSPGERATLSCSASSSISYMHWYQQKPGKAPKLLIYSTSNLASGVPSRFSGSGSGTEFTLTISSLQPDDFATYYCHQWSTYETFGQGTKVEIK
notes: Humanized
Take B3: the pH inflection point was determined as 6.6 pH in assay [2] and 6.17 pH in [6]. The EC50 worked out at 0.674 µg/mL in [3]; 2.42 µg/mL in assay [4]; 14.1 µg/mL in assay [5]; 0.0359 µg/mL in assay [7]; 0.238 µg/mL in [8]; 0.321 µg/mL in [9]. Further, the EC50 in [10] turned out to be 114 µg/mL; in assay [11] it was 0.0154 µg/mL; in assay [12], 0.652 µg/mL; in [13] it was 0.215 µg/mL.

B4: BAP-105-06-02 conjugated to MMAE (antibody, V domains shown)
VH: EVQLVQSGAEVKKPGATVKISCKVSGYTFTSYWMHWIRQPPGKGLEWIGYIRPSTGYTEYNQKFKDRFTISRDNSKNTLYLQMNSLRAEDTAVYYCGRGDNWVGFANWGQGTLVTVSS
VL: EIVLTQSPDFQSVTPKEKVTITCSASSSISYMHWYQQKPGKAPKLLIYSTSSLASGVPDRFSGSGSGTDFTLKISRVEAEDVGVYYCHQWSTYETFGQGTKVEIK
modifications: antibody conjugated to MMAE; chain and residues of attachment not stated
In the case of B4, in assay [1], the “IC50 for the in vitro killing of Colo205 cells, pH6.0” value was determined as 146 ng/mL; the “IC50 for the in vitro killing of Colo205 cells, pH7.4” value worked out at 708 ng/mL; the “ratio (pH7.4/pH6.0) of the IC50 for the in vitro killing of Colo205 cells” value was 4.86.

B5: BAP-105-01-02 (antibody, V domains shown)
VH: QVQLQQSGAELAKPGASVKVSCKASGYTFTSYWMHWVKQRPGQGLEWIGDIRPSTGYTEYNQKFKDKATLTADKSSSTAYMQLSSLTFEDSAVYYCGRGDNWVGFANWGQGTLVTVSA
VL: QIVLTQSPAIMSASLGEEIALTCSASSSISYMHWYQQKSGTSPKLLIYSTSNLASGVPSRFSGSGSGTFYSLTISSVEAEDAADYFCHQWSTYHTFGSGTKLEIK
In the case of B5, the binding result in assay [14] is recorded as “binds”.

B6: BAP-105-01-04 (antibody, V domains shown)
VH: QVQLQQSGAELAKPGASVKVSCKASGYTFTSYWMHWVKQRPGQGLEWIGYIRPSTGYTEYNQKFKDKATLTADKSSSTAYMQLSSLTFEDSAVYYCGRGDNWVGFANWGQGTLVTVSA
VL: QIVLTQSPAIMSASLGEEIALTCSASSSISYMHWYQQKSGTSPKLLIYSTSNLHSGVPSRFSGSGSGTFYSLTISSVEAEDAADYFCHQWSTYHTFGSGTKLEIK
For B6, in assay [14], the binding result is “binds”.

B7: BAP-105-01-05 (antibody, V domains shown)
VH: QVQLQQSGAELAKPGASVKVSCKASGYTFTSYWMHWVKQRPGQGLEWIGYIRPSTGYTEYNQKFKDKATLTADKSSSTAYMQLSSLTFEDSAVYYCGRGDNWVGFANWGQGTLVTVSA
VL: QIVLTQSPAIMSASLGEEIALTCSASSSISYMHWYQQKSGTSPKLLIYSTSNLASGVPSRFSGSGSGTFYSLTISSVEAEDAADYFCEQWSTYHTFGSGTKLEIK
Take B7: the binding result in [14] is listed as “binds”.

B8: BAP-105.4-03-02 (antibody, V domains shown)
VH: EVQLVQSGAEVKKPGESLRISCKGSGYTFTSYWMHWIRQSPSRGLEWLGYIRPSTGYTEYNQKFKDRVTISADKSISTAYLQWSSLKASDTAMYYCGRGDNWVGFANWGQGTLVTVSS
VL: EIVMTQSPATLSVSPGERATLSCSASSSISYMHWYQQKPGKAPKLLIYSTSNLASGIPPRFSGSGYGTDFTLTINNIESEDAAYYFCHQWSTYETFGQGTKVEIK
notes: Humanized
B8: the pH inflection point turned out to be 6.82 pH in assay [2] and 6.35 pH in assay [6]. The EC50 in [3] came to 0.084 µg/mL; in assay [4], 1.42 µg/mL; in [5], 4.46 µg/mL; in assay [7], 0.105 µg/mL; in assay [8], 0.159 µg/mL; in assay [9], 0.497 µg/mL. Besides, the EC50 amounted to 0.0487 µg/mL in [10], 0.0191 µg/mL in [11], 0.67 µg/mL in [12] and 0.118 µg/mL in assay [13].
